Data from publication PMC2794250, “An MDM2 antagonist (MI-319) restores p53 functions and increases the life span of orally treated follicular lymphoma bearing animals” (2009).
pKi: −log10 of the molar value.

Target: recombinant His-tagged MDM2 (amino acids 1-118) (human) (UniProt Q00987)
Experiment: FP; competition with PMDM6-F

- pKi: 5.17
Substance: natural p53 peptide (from UniProt P04637)
